Substitutions are numbered along the chain they refer to.
B1: CsL4.2-17 (protein)
chain: MARLDKSKVINSALELLNEVGIEGLTTRKLAQKLGVEQPTLYWHVKNKRALLDALAIEMMDRHQTHYLPLEGESWQDYLRNFAKSMRCALLSHRDGAKVALGTRWTEQQYETAENMLAFLTQQGFSLENALYATSAVRVFTLGAVLLDQEQQVAKEERETPTTDSMPPLLRQAWELKVHQGAEPAFLFGLELIIAGLEKQLKRESGSHHHHHH
modifications: Sulfonylurea responsive repressor
B2: CsL4.2-12 (protein)
chain: B1 chain with M60H, Q64G, Y78F, C88R, Q151G, K155N
modifications: Sulfonylurea responsive repressor
B3: CsL4.2-27 (protein)
chain: B1 chain with Y78F, A100S, S135D, T163P, S165R, R171Q, V178E, E204D
modifications: Sulfonylurea responsive repressor
B4: CsL4.2-11 (protein)
chain: B1 chain with M60H, Q64G, C88R, A100S, V178E, K202X
modifications: not fully specified; Sulfonylurea responsive repressor; VARIANT 202: Xaa = Any Amino Acid
B5: CsL4.2-18 (protein)
chain: B1 chain with Y78F, T163P, S165R, I193L
modifications: Sulfonylurea responsive repressor
B6: CsL4.2-20: Chlorsulfuron (Cs) repressor, top hit of library CsL4.2 (protein)
chain: MARLDKSKVINSALELLNEVGIEGLTTRKLAQKLGVEQPTLYWHVKNKRALLDALAIEMHDRHQTHYLPLEGESWQDFLRNFAKSMRLALLSHRDGAKVSLGTRWTEQQYETAENMLAFLTQQGFSLENALYATDAVRVFTLGAVLLDQEQQVAKEERETPTPDSMPPLLRQAWELKVHQGAEPAFLFGLELIIAGLEKQLKRESGS
modifications: Sulfonylurea responsive repressor

Test system: E. coli assay strain Km3
Assay: Liquid B-galactosidase assays of chlorsulfuron repressor hits (induction and repression)
Conditions: CsL4.2 hits; 20 ppb Cs vs no inducer
Method: In order to create new diversity for shuffling the top clone from CsL3 was subjected to error prone PCR mutagenesis using Mutazyme (Stratagene). The mutated PCR product encoding the CsR ligand binding domain was inserted into library expression vector pVER7334 as a Sac1 to Asc1 fragment, transformed into library strain Km3 and plated onto LB+40 ug/ml Kanamycin and 50 ug/ml Carbenecillin. Approximately 10,000 colonies were then replica plated onto M9 Xgal assay medium +/−20 ppb Cs. Putative hits were then re-arrayed and replica plated onto the same assay medium. Performance was gauged by the level of blue colony color after 24 hrs incubation on inducer (induction) and 72 hrs incubation without inducer (repression). The top hits were then subjected to liquid B-galactosidase assays for quantitative assessment (Table 21).
Seventh round library CsL4.2 was designed based on the best diversity from CsL3 and CsL3-MTZ library screens (Table 14). The library was assembled with oligonucleotides shown below in Table 22. The first and last primers were used as rescue primers. CsL4.2 included a C-terminal 6×His-tag extension to facilitate protein purification. The library was assembled and cloned into vector pVER7334 Sac1 to Asc1, transformed into library assay strain Km3 and plated onto LB+40 ug/m1 Kanamycin and 50 ug/ml carbenecillin. Approximately 8,000 colonies were re-arrayed into 384-well format and replica plated onto M9 Xgal assay medium +/−2 ppb Cs. Putative hits were re-arrayed in 96-well format onto the same media for re-testing. Confirmed hits were then tested for induction and repression aspects in liquid culture using B-galactosidase assays.
Mutagenesis reactions were transformed into E. coli assay strain Km3 and plated onto LB+50 ug/ml Carbenecillin. Colonies were then re-arrayed into 384 well format and replica plated onto M9 Xgal assay medium +/−5 ppb Chlorsulfuron. Putative hits were then re-arrayed and analyzed by B-galactosidase assays relative to the parent clones (FIG. 10).

Row | Molecule | F. IND = fold induction (IND/REP) (B-galactosidase)
1 | B1 | 9.7
2 | B2 | 9.5
3 | B3 | 9.1
4 | B4 | 8.9
5 | B5 | 9.3

Same assay, conditions: CsL4.2 hits; liquid B-galactosidase assay, 20 ppb Cs

Row | Molecule | IND = induction with 20 ppb CS (B-galactosidase)
6 | B1 | 3.1
7 | B2 | 6.4
8 | B3 | 3.2
9 | B4 | 4.8
10 | B5 | 6.8
11 | B6 | 7.4

Same assay, conditions: CsL4.2 hits; liquid B-galactosidase assay, no inducer

Row | Molecule | REP = repression in absence of inducer (B-galactosidase)
12 | B1 | 0.3
13 | B2 | 0.7
14 | B3 | 0.4
15 | B4 | 0.5
16 | B5 | 0.7
17 | B6 | 0.2
